Experimental findings from patent publication US20090142365A1 (HEALTH RESEARCH, published 2009) are described below.

The target of the test is Luciferase (UniProt P08659 1-550 = luciferase, limits assumed). In words: pull-down: 1:1 mix, immunoprecipitation with anti-OVA antibody, western blot with anti-luciferase antibody. How it is done:
Lanes with no chaperone (1st lane) were included as controls. […] In the bottom panel, WB was performed with anti-luciferase to confirm that OVA pull-down was successful.
After SDS-PAGE (10%) electrophoresis, western blot analysis was performed using anti-luciferase (Promega, Madison, Wis.) or anti-gp100 antibody (Santa Cruz Biotechnology, Santa Cruz, Calif.).
A general note: Immunoblotting shows a protein as a band on a membrane.

Chain of Luciferase (P08659 whole entry): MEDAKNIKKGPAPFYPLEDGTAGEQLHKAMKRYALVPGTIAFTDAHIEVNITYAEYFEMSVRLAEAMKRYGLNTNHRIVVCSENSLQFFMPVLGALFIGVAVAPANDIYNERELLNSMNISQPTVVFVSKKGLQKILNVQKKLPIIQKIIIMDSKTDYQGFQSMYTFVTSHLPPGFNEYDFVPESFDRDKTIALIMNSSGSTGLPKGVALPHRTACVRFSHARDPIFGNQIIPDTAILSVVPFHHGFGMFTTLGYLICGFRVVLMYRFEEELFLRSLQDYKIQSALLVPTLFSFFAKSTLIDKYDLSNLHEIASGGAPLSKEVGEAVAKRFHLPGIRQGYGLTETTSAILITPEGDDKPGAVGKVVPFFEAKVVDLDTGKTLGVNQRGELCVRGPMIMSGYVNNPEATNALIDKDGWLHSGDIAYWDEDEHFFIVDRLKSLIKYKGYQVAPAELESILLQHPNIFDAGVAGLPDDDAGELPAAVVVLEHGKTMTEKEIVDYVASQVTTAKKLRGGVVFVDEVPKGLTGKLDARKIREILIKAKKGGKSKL

B1: Ovalbumin (other, UniProt P01012 2-386, looked up)
chain: GSIGAASMEFCFDVFKELKVHHANENIFYCPIAIMSALAMVYLGAKDSTRTQINKVVRFDKLPGFGDSIEAQCGTSVNVHSSLRDILNQITKPNDVYSFSLASRLYAEERYPILPEYLQCVKELYRGGLEPINFQTAADQARELINSWVESQTNGIIRNVLQPSSVDSQTAMVLVNAIVFKGLWEKAFKDEDTQAMPFRVTEQESKPVQMMYQIGLFRVASMASEKMKILELPFASGTMSMLVLLPDEVSGLEQLESIINFEKLTEWTSSNVMEERKIKVYLPRMKMEEKYNLTSVLMAMGITDVFSSSANLSGISSAESLKISQAVHAAHAEINEAGREVVGSAEAGVDAASVSEEFRADHPFLFCIKHIATNAVLFFGRCVSP
notes: Negative control protein
On to B1, for which the binding result was “no binding”.
